The values below come from patent publication US20190367626A1.

For one assay, the target named is P76A TRAILshort. Briefly: flow cytometry of 293T cells transfected with P76A TRAILshort, isotype control staining.
Another assay concerns the target TRAILshort (UniProt P50591). The assay is described as follows: flow cytometry of 293T cells transfected with WT TRAILshort, isotype control staining. In general terms: In flow cytometry, cells or beads pass a laser one at a time.

Chain of TRAILshort (P50591 other isoform, or with tags, fused parts or gaps): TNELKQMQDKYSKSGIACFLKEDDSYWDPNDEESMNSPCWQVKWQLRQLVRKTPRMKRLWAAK

“C555 labeled anti-Ig3 Isotype control (antibody)”: the percent of cells in the gate in the assay with P76A TRAILshort is 2.2%; in the assay with TRAILshort, 3.2%.
